Data set [1] deals with T1, HelQ (Homo sapiens, UniProt Q8TDG4).
T1 sequence: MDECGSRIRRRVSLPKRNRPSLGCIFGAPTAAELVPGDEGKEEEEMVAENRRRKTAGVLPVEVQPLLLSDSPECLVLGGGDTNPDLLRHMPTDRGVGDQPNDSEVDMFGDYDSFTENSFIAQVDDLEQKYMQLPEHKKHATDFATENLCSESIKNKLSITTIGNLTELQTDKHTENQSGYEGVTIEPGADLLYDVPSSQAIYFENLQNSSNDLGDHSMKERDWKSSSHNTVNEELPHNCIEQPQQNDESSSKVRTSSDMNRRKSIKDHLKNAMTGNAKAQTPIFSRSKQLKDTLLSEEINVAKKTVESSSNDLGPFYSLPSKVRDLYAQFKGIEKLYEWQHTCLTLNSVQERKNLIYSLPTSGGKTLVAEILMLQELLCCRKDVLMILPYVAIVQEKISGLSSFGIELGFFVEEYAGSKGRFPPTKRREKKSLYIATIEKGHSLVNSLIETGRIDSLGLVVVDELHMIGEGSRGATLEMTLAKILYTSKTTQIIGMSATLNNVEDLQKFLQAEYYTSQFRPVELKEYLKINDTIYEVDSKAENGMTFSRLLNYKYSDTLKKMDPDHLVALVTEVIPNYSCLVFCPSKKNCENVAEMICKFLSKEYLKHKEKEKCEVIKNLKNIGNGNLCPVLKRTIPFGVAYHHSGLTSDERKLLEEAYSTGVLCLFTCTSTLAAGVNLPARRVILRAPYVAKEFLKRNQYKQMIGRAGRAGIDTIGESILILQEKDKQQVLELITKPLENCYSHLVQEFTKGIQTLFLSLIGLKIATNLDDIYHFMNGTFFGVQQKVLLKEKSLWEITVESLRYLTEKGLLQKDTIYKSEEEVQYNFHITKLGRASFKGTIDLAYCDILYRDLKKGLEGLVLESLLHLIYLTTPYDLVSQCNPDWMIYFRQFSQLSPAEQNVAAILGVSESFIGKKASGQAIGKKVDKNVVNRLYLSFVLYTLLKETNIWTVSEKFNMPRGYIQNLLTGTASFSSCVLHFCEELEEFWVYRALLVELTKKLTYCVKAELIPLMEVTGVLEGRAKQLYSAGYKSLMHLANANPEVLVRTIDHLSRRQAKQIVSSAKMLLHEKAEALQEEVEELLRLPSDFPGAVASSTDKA
The experiment in a line: EMSA. Background: In EMSA bound probe runs differently from free probe, usually more slowly.

The next data set concerns the target N-HelQ;RPA (Homo sapiens;Homo sapiens, UniProt Q8TDG4;P27694;P15927;P35244 1-417;1-616;1-270;1-121, |). The experiment in a line: EMSA.
A further data set addresses T2, N-HelQ (Homo sapiens, UniProt Q8TDG4 1-417).
T2 sequence: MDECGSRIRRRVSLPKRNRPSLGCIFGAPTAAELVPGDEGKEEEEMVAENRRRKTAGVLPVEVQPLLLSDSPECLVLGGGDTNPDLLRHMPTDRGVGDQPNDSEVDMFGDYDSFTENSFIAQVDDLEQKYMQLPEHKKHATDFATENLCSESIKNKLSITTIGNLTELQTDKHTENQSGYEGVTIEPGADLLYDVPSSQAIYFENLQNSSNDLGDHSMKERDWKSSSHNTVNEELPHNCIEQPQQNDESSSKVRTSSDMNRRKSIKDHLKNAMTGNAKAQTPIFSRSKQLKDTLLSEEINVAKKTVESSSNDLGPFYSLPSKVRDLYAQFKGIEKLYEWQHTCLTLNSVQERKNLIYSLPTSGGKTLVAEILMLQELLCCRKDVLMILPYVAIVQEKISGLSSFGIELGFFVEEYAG
Nature of the data set: EMSA.

Data set [2] has as its target T1, HelQ. Nature of the data set: EMSA. This is another data set of the same source.
The target of a further data set is SSB (Escherichia coli, UniProt P0AGE0 1-178). The experiment in a line: EMSA.
Chain of SSB (P0AGE0 whole entry): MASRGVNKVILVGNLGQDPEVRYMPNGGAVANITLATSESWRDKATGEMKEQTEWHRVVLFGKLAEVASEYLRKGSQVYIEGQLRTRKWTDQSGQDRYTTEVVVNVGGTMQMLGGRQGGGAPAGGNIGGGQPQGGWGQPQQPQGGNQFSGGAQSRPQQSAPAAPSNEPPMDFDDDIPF
The target of the next data set is HelQ;RPA (Homo sapiens;Homo sapiens, UniProt Q8TDG4;P27694;P15927;P35244 ;1-616;1-270;1-121, |). The experiment in a line: EMSA.
Chain of HelQ;RPA (P27694 whole entry, chain 2 of 3): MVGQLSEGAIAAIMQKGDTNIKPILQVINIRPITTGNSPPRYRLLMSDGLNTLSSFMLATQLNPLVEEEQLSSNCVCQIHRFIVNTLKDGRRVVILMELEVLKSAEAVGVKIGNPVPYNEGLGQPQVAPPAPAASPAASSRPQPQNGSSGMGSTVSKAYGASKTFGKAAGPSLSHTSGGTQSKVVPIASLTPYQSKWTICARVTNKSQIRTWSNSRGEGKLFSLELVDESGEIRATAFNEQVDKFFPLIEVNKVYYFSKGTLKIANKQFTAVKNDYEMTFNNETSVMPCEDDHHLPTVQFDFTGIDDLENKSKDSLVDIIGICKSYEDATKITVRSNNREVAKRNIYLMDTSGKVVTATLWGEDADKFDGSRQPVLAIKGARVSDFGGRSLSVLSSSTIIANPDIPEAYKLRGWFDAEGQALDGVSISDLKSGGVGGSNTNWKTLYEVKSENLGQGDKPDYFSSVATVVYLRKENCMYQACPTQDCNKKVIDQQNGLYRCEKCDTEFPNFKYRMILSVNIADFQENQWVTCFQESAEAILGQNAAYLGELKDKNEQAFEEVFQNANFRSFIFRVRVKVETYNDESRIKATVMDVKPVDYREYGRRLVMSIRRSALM
Chain of HelQ;RPA (P15927 whole entry, chain 3 of 3): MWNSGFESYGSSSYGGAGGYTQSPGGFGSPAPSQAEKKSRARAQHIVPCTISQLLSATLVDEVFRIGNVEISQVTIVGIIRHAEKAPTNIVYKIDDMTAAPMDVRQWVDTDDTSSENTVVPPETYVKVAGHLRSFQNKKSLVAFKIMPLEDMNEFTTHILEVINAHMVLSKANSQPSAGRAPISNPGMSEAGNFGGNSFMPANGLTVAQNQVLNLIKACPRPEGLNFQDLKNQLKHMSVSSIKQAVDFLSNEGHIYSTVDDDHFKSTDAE
Chain of HelQ;RPA (P35244 whole entry, chain 4 of 3): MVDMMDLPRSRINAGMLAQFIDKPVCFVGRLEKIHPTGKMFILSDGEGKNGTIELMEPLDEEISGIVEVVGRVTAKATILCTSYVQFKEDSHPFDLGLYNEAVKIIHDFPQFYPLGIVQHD
The data set “SEC-MALS” concerns the molecule itself. Nature of the data set: SEC-MALS.

Read-outs that look alike come from different tables or passages of the source.

Broadly, the stoichiometry N is the number of molecules, sites or subunits per partner or assembly.

Chain of N-HelQ;RPA (P27694 whole entry, chain 2 of 3): as the sequence (P27694 whole entry, chain 2 of 3) above
Chain of N-HelQ;RPA (P15927 whole entry, chain 3 of 3): as the sequence (P15927 whole entry, chain 3 of 3) above
Chain of N-HelQ;RPA (P35244 whole entry, chain 4 of 3): as the sequence (P35244 whole entry, chain 4 of 3) above

B1: Fork-Me (mixed)
DNA 1: GTCGGATCCTCTAGACAGCATCCATGATCACTGGCACTGGTAGAATTCGGC
DNA 2: CAACGTCATAGACGATTACATTGCTACATGGATGCTGTCTAGAGGATCCGA
modifications: single methylphosphonate linkage in the 3'-5' tracking strand (position marked only in Fig S6)
Take B1: in the data set with HelQ [1], the binding result is on record as “binds”.

B2: Fork-A (mixed)
DNA 1: GTCGGATCCTCTAGACAGCTCCATGATCACTGGCACTGGTAGAATTCGGC
DNA 2: CAACGTCATAGACGATTACATTGCTACATGGAGCTCTCTAGAGGATCCGA
For B2, the binding result with N-HelQ;RPA is reported as “binds”; with N-HelQ, “no binding”; with HelQ [2], “binds”; with SSB it was “binds”; with HelQ;RPA it was “binds”.

B3: Fork-AP (mixed)
DNA 1: B2 DNA 1
DNA 2: B2 DNA 2
modifications: single abasic site in the 3'-5' tracking strand (position marked only in Fig S6)
On to B3, for which the binding result with HelQ [1] is “binds”.

B4: Fork-S (mixed)
DNA 1: B2 DNA 1
DNA 2: B2 DNA 2
modifications: single phosphorothioate linkage in the 3'-5' tracking strand (position marked only in Fig S6)
As to B4, in the data set with HelQ [1], the binding result is listed as “binds”.

B5: human HelQ helicase (full-length HelQ) (enzyme)
chain: T1 sequence
On to B5, for which the “stoichiometry N” value in the data set “SEC-MALS” stood at 2.

These data come from paper doi:10.1101/511758 (bioRxiv, 2019).
